± gives the uncertainty stated by the source.
Assay: self-splicing fitness, log relative to wild type (ln ratio); higher = more splicing; Tetrahymena group I intron in knt gene, E. coli kanamycin selection, DiMSum; sequences stand for … in CUCUCU…GGAGGGAAAAGUUAUCAGGCAUGCACCUGGUAGCUAGUCUUUAAACCAAUAGAUUGCAUCGGUUUAAAAGGCAAGACCGUCAAAUUGCGGGAAAGGGGUCAACAGCCGUUCAGUACCAAGUCUCAGGGGAAACUUUGAGAUGGCCUUGCAAAGGGUAUGGUAAUAAGCUGACGGACAUGGUCCUAACCACGCAGCCAAGUCCUAAGUCAACAGAUCUUCUGUUGAUAUGGAUGCAGUUCACAGACUAAAUGUCGGUCGGGGAAGAUGUAUUCUUCUCAUAAGAUAUAGUCGGACCUCUCCUUAAUGGGAGCUAGCGGAUGAAGUGAUGCAACACUGGAGCCGCUGGGAACUAAUUUGUAUGCGAAAGUAUAUUGAUUAGUUUUGGAGUACUCGUGGUCG
How it was run: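 The eight P1ex-region nucleotides of an intron in the knt kanamycin-resistance gene on pET-22b(+) were all randomised and the library put into E. coli BL21(DE3). Six replicate transformations were grown overnight at 37°C or 30°C on LB agar with or without 25 μg/mL kanamycin, together with 100 μg/mL carbenicillin, 50 μM IPTG and 0.2% rhamnose. Colonies were pooled and amplicon-sequenced on an Illumina HiSeq 2500. Fitness from DiMSum is the error-weighted combination of wild-type-normalised replicate fold changes, kanamycin over none.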

Sequence: GUCGAGCAAUAUUACGUGGG
- self-splicing fitness (ln) (30 °C): -2.55 ± 0.21
- self-splicing fitness (ln) (37 °C): -0.374 ± 0.14

Sequence: ACACAGCAAUAUUACGGGCG
- self-splicing fitness (ln) (30 °C): -0.978 ± 0.048
- self-splicing fitness (ln) (37 °C): -0.369 ± 0.062

Sequence: ACUCAGCAAUAUUACGGGCC
- self-splicing fitness (ln) (30 °C): -1.32 ± 0.092
- self-splicing fitness (ln) (37 °C): -1.13 ± 0.11

Sequence: UCCGAGCAAUAUUACGUCCU
- self-splicing fitness (ln) (30 °C): -2.6 ± 0.28

Sequence: GUAAAGCAAUAUUACGAUUU
- self-splicing fitness (ln) (30 °C): -0.348 ± 0.051
- self-splicing fitness (ln) (37 °C): 0.232 ± 0.065

Sequence: UUGAAGCAAUAUUACGGAAG
- self-splicing fitness (ln) (30 °C): -1.12 ± 0.14
- self-splicing fitness (ln) (37 °C): -0.383 ± 0.2

Sequence: UCUUAGCAAUAUUACGAAAA
- self-splicing fitness (ln) (37 °C): -0.128 ± 0.34

Sequence: ACUUAGCAAUAUUACGAUCA
- self-splicing fitness (ln) (30 °C): -1.45 ± 0.14
- self-splicing fitness (ln) (37 °C): -0.47 ± 0.13

Sequence: UUUCAGCAAUAUUACGGUUA
- self-splicing fitness (ln) (30 °C): 0.116 ± 0.071
- self-splicing fitness (ln) (37 °C): 0.454 ± 0.077

Sequence: UGCUAGCAAUAUUACGCCCG
- self-splicing fitness (ln) (30 °C): -0.583 ± 0.19
- self-splicing fitness (ln) (37 °C): 0.807 ± 0.3

Sequence: GUGCAGCAAUAUUACGUAGG
- self-splicing fitness (ln) (30 °C): -1.28 ± 0.11
- self-splicing fitness (ln) (37 °C): -1.05 ± 0.16

Sequence: GUAAAGCAAUAUUACGGCCG
- self-splicing fitness (ln) (30 °C): -0.257 ± 0.087
- self-splicing fitness (ln) (37 °C): 0.625 ± 0.12

Sequence: AGCUAGCAAUAUUACGUUAC
- self-splicing fitness (ln) (30 °C): -3.52 ± 0.27
- self-splicing fitness (ln) (37 °C): -1.87 ± 0.18

Sequence: CGAGAGCAAUAUUACGGGGU
- self-splicing fitness (ln) (30 °C): -2.86 ± 0.37
- self-splicing fitness (ln) (37 °C): -2.27 ± 0.37

Sequence: GCACAGCAAUAUUACGUGCA
- self-splicing fitness (ln) (30 °C): -3.1 ± 0.12
- self-splicing fitness (ln) (37 °C): -2.04 ± 0.093

Sequence: UCGAAGCAAUAUUACGAUUA
- self-splicing fitness (ln) (30 °C): -1.19 ± 0.12
- self-splicing fitness (ln) (37 °C): -0.794 ± 0.11

Sequence: UCAAAGCAAUAUUACGCUUU
- self-splicing fitness (ln) (30 °C): -3.89 ± 0.46
- self-splicing fitness (ln) (37 °C): -1.72 ± 0.27

Sequence: GACGAGCAAUAUUACGCCUG
- self-splicing fitness (ln) (37 °C): -1.56 ± 0.47

Sequence: CGGCAGCAAUAUUACGCUUU
- self-splicing fitness (ln) (30 °C): -2.9 ± 0.2
- self-splicing fitness (ln) (37 °C): -1.62 ± 0.13

Sequence: UUAAAGCAAUAUUACGGUGG
- self-splicing fitness (ln) (30 °C): -0.511 ± 0.079
- self-splicing fitness (ln) (37 °C): 0.0701 ± 0.1

Sequence: UCCCAGCAAUAUUACGAUCC
- self-splicing fitness (ln) (30 °C): -1.93 ± 0.41
- self-splicing fitness (ln) (37 °C): -1.58 ± 0.46

Sequence: GGGGAGCAAUAUUACGGCUC
- self-splicing fitness (ln) (37 °C): -0.173 ± 0.34

Sequence: AGGCAGCAAUAUUACGGACA
- self-splicing fitness (ln) (30 °C): -0.916 ± 0.12
- self-splicing fitness (ln) (37 °C): -0.346 ± 0.13

Sequence: AAAAAGCAAUAUUACGCUUC
- self-splicing fitness (ln) (30 °C): -3.38 ± 0.3

Sequence: UCACAGCAAUAUUACGGAAC
- self-splicing fitness (ln) (30 °C): -2.98 ± 0.21
- self-splicing fitness (ln) (37 °C): -2.45 ± 0.26

Sequence: UGUGAGCAAUAUUACGGGCC
- self-splicing fitness (ln) (30 °C): -3 ± 0.31
- self-splicing fitness (ln) (37 °C): -3.45 ± 0.39

Sequence: GUUGAGCAAUAUUACGAACA
- self-splicing fitness (ln) (30 °C): -2.67 ± 0.4
- self-splicing fitness (ln) (37 °C): -1.69 ± 0.32

Sequence: GCUAAGCAAUAUUACGUAGC
- self-splicing fitness (ln) (30 °C): -4.22 ± 0.26
- self-splicing fitness (ln) (37 °C): -2.16 ± 0.18

Sequence: AUGGAGCAAUAUUACGCAGG
- self-splicing fitness (ln) (30 °C): -3.69 ± 0.26
- self-splicing fitness (ln) (37 °C): -2.89 ± 0.4

Sequence: CAAUAGCAAUAUUACGGAGU
- self-splicing fitness (ln) (30 °C): -4.14 ± 0.43
- self-splicing fitness (ln) (37 °C): -2.04 ± 0.25

Sequence: GAGCAGCAAUAUUACGAAAU
- self-splicing fitness (ln) (30 °C): -2.45 ± 0.21
- self-splicing fitness (ln) (37 °C): -1.84 ± 0.21

Sequence: AUCCAGCAAUAUUACGGGUA
- self-splicing fitness (ln) (30 °C): -1.58 ± 0.1
- self-splicing fitness (ln) (37 °C): -1.21 ± 0.089

Sequence: CCCAAGCAAUAUUACGCGUU
- self-splicing fitness (ln) (30 °C): -4.28 ± 0.18
- self-splicing fitness (ln) (37 °C): -1.74 ± 0.12

Sequence: CUACAGCAAUAUUACGUCAC
- self-splicing fitness (ln) (30 °C): -3.35 ± 0.36
- self-splicing fitness (ln) (37 °C): -2.13 ± 0.18

Sequence: UUCUAGCAAUAUUACGGACC
- self-splicing fitness (ln) (30 °C): -1.51 ± 0.3

Sequence: GUCUAGCAAUAUUACGACCA
- self-splicing fitness (ln) (30 °C): -0.99 ± 0.26
- self-splicing fitness (ln) (37 °C): -2.1 ± 0.29

Sequence: AUUUAGCAAUAUUACGCCUU
- self-splicing fitness (ln) (30 °C): -0.196 ± 0.092
- self-splicing fitness (ln) (37 °C): -0.0916 ± 0.12

Sequence: CUCUAGCAAUAUUACGGGGA
- self-splicing fitness (ln) (30 °C): -1.69 ± 0.17
- self-splicing fitness (ln) (37 °C): -1.62 ± 0.14

Sequence: GACCAGCAAUAUUACGUCUA
- self-splicing fitness (ln) (30 °C): -1.44 ± 0.085
- self-splicing fitness (ln) (37 °C): -0.724 ± 0.081

Sequence: UAUUAGCAAUAUUACGUUGG
- self-splicing fitness (ln) (30 °C): -2.1 ± 0.21
- self-splicing fitness (ln) (37 °C): -0.685 ± 0.18

Sequence: CAUAAGCAAUAUUACGGUUC
- self-splicing fitness (ln) (30 °C): -3.7 ± 0.17
- self-splicing fitness (ln) (37 °C): -3.08 ± 0.19

Sequence: AUCGAGCAAUAUUACGGUUC
- self-splicing fitness (ln) (30 °C): -2.93 ± 0.24

Sequence: GUACAGCAAUAUUACGUCUC
- self-splicing fitness (ln) (30 °C): -0.298 ± 0.11
- self-splicing fitness (ln) (37 °C): -0.182 ± 0.12

Sequence: CAUCAGCAAUAUUACGAUGC
- self-splicing fitness (ln) (30 °C): -4.35 ± 0.36
- self-splicing fitness (ln) (37 °C): -2.76 ± 0.33

Sequence: AACCAGCAAUAUUACGCGGG
- self-splicing fitness (ln) (30 °C): -4.5 ± 0.24
- self-splicing fitness (ln) (37 °C): -3.16 ± 0.24

Sequence: AGAAAGCAAUAUUACGCCAC
- self-splicing fitness (ln) (37 °C): -2.07 ± 0.41

Sequence: UGAAAGCAAUAUUACGUAAA
- self-splicing fitness (ln) (30 °C): -1.75 ± 0.082
- self-splicing fitness (ln) (37 °C): -0.9 ± 0.098

Sequence: AUAUAGCAAUAUUACGGGUG
- self-splicing fitness (ln) (30 °C): -1.81 ± 0.17
- self-splicing fitness (ln) (37 °C): -1.3 ± 0.15

Sequence: AAACAGCAAUAUUACGCGGA
- self-splicing fitness (ln) (30 °C): -2.23 ± 0.11
- self-splicing fitness (ln) (37 °C): -1.02 ± 0.093

Sequence: UUGAAGCAAUAUUACGCGUG
- self-splicing fitness (ln) (30 °C): -0.176 ± 0.07
- self-splicing fitness (ln) (37 °C): -0.123 ± 0.099

Source: the supplement of paper PMC7877785
